According to patent US7052898B2, “Thermostable isomerase and use hereof, in particular for producing tagatose” (Bioneer A/S, priority 2001, dated 2006):
Where two headings read alike, the source gives them in different places.

Experiments:
[1] = cited from earlier work
[2] = tested on: Lactobacillus plantarum L-arabinose isomerase; conditions: read-out: Km for L-arabinose; Reference 4: Heath et al. (1958); cited from earlier work
[3] = tested on: Mycobacterium smegmatis L-arabinose isomerase; conditions: read-out: Km for L-arabinose; Reference 6: J. Bacteriol. 133: 413-414 (1978); cited from earlier work
[4] = tested on: Lactobacillus gayonii L-arabinose isomerase; conditions: read-out: Km for L-arabinose; Reference 5: Nakamatu and Yamanaka (1969); cited from earlier work
[5] = tested on: Aerobacter aerogenes L-arabinose isomerase; conditions: read-out: Km for L-arabinose; Reference 1: Yamanaka and Wood (1966); cited from earlier work
[6] = tested on: Escherichia coli L-arabinose isomerase; conditions: read-out: Km for L-arabinose; Reference 3: Patrick and Lee (1968); cited from earlier work
[7] = tested on: L-arabinose isomerase from T. mathranii; assay: Metal ion requirement: reactivation of EDTA-dialysed enzyme; format: biochemical, Thermoanaerobacter mathranii; conditions: enzyme previously dialysed against 5 mM EDTA, metal salt added
Protocol: (§1) Enzyme sample, 10-50 μl, was mixed with 950 μl of assay reagent and incubated at 65° C. for 60 min.

[8] = end-product inhibition; cited from earlier work
[9] = substrate: OC1OC[C@H](O)[C@H](O)[C@H]1O; assay: purified protein, by the assay type; conditions: other: apparent Km; T. mathranii enzyme produced in E. coli; pH 6.9; 65.0 °C
[10] = Substrate specificity: D-fucose colour response relative to L-arabinose; format: biochemical; conditions: 0.5 M D-fucose, cysteine-carbazol-sulfuric acid method
Protocol: as §1
(§2) The obtained concentrations of the ketoses L-ribulose, D-tagatose or D-fuculose, respectively, were determined by the cysteine-carbazol-sulfuric acid method (Dische, Z. and Borenfreund, E. (1951) J. Biol. Chem. 192: 583-587). Samples were incubated at room temperature for 60 min and the absorbance at 560 nm was measured in a microplate reader. Standard curves showing the colour response of 0-5 mM ketose were made with D-tagatose and D-ribulose, since L-ribulose was not commercially available. (No standard curve was obtained for D-fuculose which was not commercially available.)

[11] = Substrate specificity: other aldo-hexoses, aldo-pentoses and deoxy-sugar; format: biochemical
Protocol: as §1, §2

[12] = pH dependence, D-galactose assay; format: biochemical; conditions: D-galactose assays at pH 4, 5, 6, 7, 8 and 9
Protocol: as §1, §2
The buffer used for these assays was a mixture of 25 mM acetic acid, 25 mM 2-[N-morpholino]ethanesulfonic acid (MES), 5 mM MnCl2, and 25 mM tris[hydroxymethyl]-aminomethane (TRIS), which was titrated with HCl or NaOH.

[13] = Substrate specificity: D-galactose activity relative to L-arabinose activity; format: biochemical; conditions: molar ratio of keto-sugar, substrate 0.5 M, pH 6.9, 65° C.
Protocol: as §1, §2
The ratio was calculated from the cysteine-carbazol-sulfuric acid colour responses and the standard curves generated with ribulose and tagatose, respectively.

[14] = Bioconversion of D-galactose to D-tagatose with free enzyme; format: biochemical; conditions: 65° C.
Protocol: as §2
Control samples without enzyme were treated similarly. Periodically, samples were taken and the concentration of D-tagatose was determined by the cystein-carbazol-sulfuric acid method as described above. The results are shown in Table 2.2A (30% D-galactose) and 2.2B (60% D-galactose).

[15] = Temperature dependence, D-galactose assay; format: biochemical; conditions: temperature range of about 60-75° C.
Protocol: as §1, §2

[16] = initial D-galactose 30% (1.67 M), pH 6.9, 0 h
[17] = initial D-galactose 30% (1.67 M), pH 6.9, 24 h
[18] = initial D-galactose 30% (1.67 M), pH 6.9, 48 h
[19] = initial D-galactose 30% (1.67 M), pH 6.9, 72 h
[20] = initial D-galactose 60% (3.33 M), pH 6.9, 0 h
[21] = initial D-galactose 60% (3.33 M), pH 6.9, 24 h
[22] = initial D-galactose 60% (3.33 M), pH 6.9, 48 h
[23] = initial D-galactose 60% (3.33 M), pH 6.9, 72 h

## Lactobacillus plantarum
[1]; 10° C.
  amount of ketose at equilibrium: 10%
[1]; 25° C.
  amount of ketose at equilibrium: 14%
[1]; 53° C.
  amount of ketose at equilibrium: 16%

## OC1OC[C@H](O)[C@H](O)[C@H]1O (stereo partly drawn) [L-arabinose]
[2]
  Km: 28 mM
[3]
  Km: ~30 mM
[4]
  Km: 55 mM
[5]
  Km: 33 mM
[6]
  Km: 60 mM

## O=S(=O)([O-])[O-].[Fe+2] [FeSO4]
[7]
  restored L-arabinose isomerase activity: 76%

## [Cl][Mn][Cl] [MnCl2]
[7]
  restored L-arabinose isomerase activity: 100%

B1: β-glycosidase from Sulfolobus solfataricus: extremely thermostable β-glycosidase from the thermoacidophilic archaeon Sulfolobus solfataricus, used as lactase (protein, UniProt P22498 1-489, looked up)
Beta-galactosidase: MYSFPNSFRFGWSQAGFQSEMGTPGSEDPNTDWYKWVHDPENMAAGLVSGDLPENGPGYWGNYKTFHDNAQKMGLKIARLNVEWSRIFPNPLPRPQNFDESKQDVTEVEINENELKRLDEYANKDALNHYREIFKDLKSRGLYFILNMYHWPLPLWLHDPIRVRRGDFTGPSGWLSTRTVYEFARFSAYIAWKFDDLVDEYSTMNEPNVVGGLGYVGVKSGFPPGYLSFELSRRAMYNIIQAHARAYDGIKSVSKKPVGIIYANSSFQPLTDKDMEAVEMAENDNRWWFFDAIIRGEITRGNEKIVRDDLKGRLDWIGVNYYTRTVVKRTEKGYVSLGGYGHGCERNSVSLAGLPTSDFGWEFFPEGLYDVLTKYWNRYHLYMYVTENGIADDADYQRPYYLVSHVYQVHRAINSGADVRGYLHWSLADNYEWASGFSMRFGLLKVDYNTKRLYWRPSALVYREIATNGAITDEIEHLNSVPPVKPLRH
[8]
  inhibition by galactose: not to be inhibited
  inhibition by glucose: only moderately inhibited

B2: Thermoanaerobacter mathranii DSMZ 11426 L-arabinose isomerase (AraA), wild type, SEQ ID NO:2, produced in E. coli (Thermoanaerobacter mathranii subsp. … (protein)
chain: MQTKKKPQIGFLGIMQELYDDMLPGITERQEKYAREVIEQLQDVADFHFPKAAKNRQDIEHIVKEFNEKDLDGIMIVMLTYGPATNIVNALRNNKLPIMLANIQPVPTVTEDWDMGDLTYNQGVHGAQDTANAILRMGIKCPIITEEWHSEEFKKFVGDWAKAVQTIKALRNMKIAQFGRMHGMYDILGDDAAFTRKIGPQINQEYIGEVYRYMETATEEEINAVIEENRKNFYIDPNLSEESHRYAARLQIGFKKFLINKGYDGFTAHFDVFKGDGRFKQIPMMAASNLMAEGYGYAAEGDAVTASLVAAGHVLIGDAHFTEMYAMDFKRNSILMSHMGEGNWKIARKDRPIKLIDRELGIGKLDNPPTIVFMAQPGPATLVSLVSLEGERYRLVVSKGEILDTEEAKYIEMPYFHFRPSTGVKACLDGWLTNGGTHHECLNLGDNTRRWKILCNLLDIEYVEV
[9]
  Km: 80 mM and ˜80 mM

B3: L-arabinose isomerase from T. mathranii: L-arabinose isomerase (araA gene product, 465 amino acid residues) of Thermoanaerobacter mathranii DSMZ 11426 produced in E. coli; used as cell extract (protein)
chain: MQTKKKPQIGFLGIMQELYDDMLPGITERQEKYAREVIEQLQDVADFHFPKAAKNRQDIEHIVKEFNEKDLDGIMIVMLTYGPATNIVNALRNNKLPIMLANIQPVPTVTEDWDMGDLTYNQGVHGAQDTANAILRMGIKCPIITEEWHSEEFKKFVGDWAKAVQTIKALRNMKIAQFGRMHGMYDILGDDAAFTRKIGPQINQEYIGEVYRYMETATEEEINAVIEENRKNFYIDPNLSEESHRYAARLQIGFKKFLINKGYDGFTAHFDVFKGDGRFKQIPMMAASNLMAEGYGYAAEGDAVTASLVAAGHVLIGDAHFTEMYAMDFKRNSILMSHMGEGNWKIARKDRPIKLIDRELGIGKLDNPPTIVFMAQPGPATLVSLVSLEGERYRLVVSKGEILDTEEAKYIEMPYFHFRPSTGVKACLDGWLTNGGTHHECLNLGDNTRRWKILCNLLDIEYVEV
modifications: Thermoanaerobacter matrahnii, araA sequence
notes: used as cell extract
[10]
  colour response with D-fucose as percent of the response with L-arabinose: 46%
[11]; substrate D-arabinose
  enzyme activity with D-arabinose: No significant enzyme activity
[11]; substrate D-glucose
  enzyme activity with D-glucose: No significant enzyme activity
[11]; substrate D-mannose
  enzyme activity with D-mannose: No significant enzyme activity
[11]; substrate D-ribose
  enzyme activity with D-ribose: No significant enzyme activity
[11]; substrate D-xylose
  enzyme activity with D-xylose: No significant enzyme activity
[11]; substrate L-fucose
  enzyme activity with L-fucose: No significant enzyme activity
[11]; substrate L-ribose
  enzyme activity with L-ribose: No significant enzyme activity
[12]
  pH of highest activity: 8
[13]
  D-galactose activity as percent of the L-arabinose activity: 21%
[14]; [16]
  Conc. of D-tagatose: 0 mM
  Percent bioconversion: 0
[14]; [17]
  Conc. of D-tagatose: 427 mM
  Percent bioconversion: 25
[14]; [18]
  Conc. of D-tagatose: 450 mM
  Percent bioconversion: 26
[14]; [19]
  Conc. of D-tagatose: 422 mM
  Percent bioconversion: 25
[14]; [20]
  Conc. of D-tagatose: 0 mM
  Percent bioconversion: 0
[14]; [21]
  Conc. of D-tagatose: 462 mM
  Percent bioconversion: 14
[14]; [22]
  Conc. of D-tagatose: 542 mM
  Percent bioconversion: 16
[14]; [23]
  Conc. of D-tagatose: 622 mM
  Percent bioconversion: 19
[15]
  share of the maximum activity retained: ≥ 70%
